Results taken from patent publication US20240270846A1 (published 2024).

B1: CE115HA000 H chain altered form T28D (antibody, human IgG1, kappa, L234A L235A, N297A, name in Kabat numbering)
heavy: QVQLVESGGGVVQPGRSLRLSCAASGFDFSNAWMHWVRQAPGKGLEWVAQIKAKSNNYATYYAESVKGRFTISRDDSKNSLYLQMNSLKTEDTAVYYCRYVHYGAYYGVDAWGQGTTVTVSSASTKGPSVFPLAPSSKSTSGGTAALGCLVKDYFPEPVTVSWNSGALTSGVHTFPAVLQSSGLYSLSSVVTVPSSSLGTQTYICNVNHKPSNTKVDKKVEPKSCDKTHTCPPCPAPEAAGGPSVFLFPPKPKDTLMISRTPEVTCVVVDVSHEDPEVKFNWYVDGVEVHNAKTKPREEQYASTYRVVSVLTVLHQDWLNGKEYKCKVSNKALPAPIEKTISKAKGQPREPQVYTLPPSRCELTKNQVSLSCAVKGFYPSDIAVEWESNGQPENNYKTTPPVLDSDGSFFLVSKLTVDKSRWQQGNVFSCSVMHEALHNHYTQKSLSLSPDYKDDDDK
chain: EPKSSDKTHTCPPCPAPELLGGPSVFLFPPKPKDTLMISRTPEVTCVVVDVSHEDPEVKFNWYVDGVEVHNAKTKPREEQYNSTYRVVSVLTVLHQDWLNGKEYKCKVSNKALPAPIEKTISKAKGQPREPQVCTLPPSRDELTKNQVSLWCLVKGFYPSDIAVEWESNGQPENNYKTTPPVLDSDGSFFLYSKLTVDKSRWQQGNVFSCSVMHEALHNRYTQKSLSLSP
light: DIVMTQSPLSLPVTPGEPASISCRSSQSLVHSNRNTYLHWYQQKPGQAPRLLIYKVSNRFSGVPDRFSGSGSGTDFTLKISRVEAEDVGVYYCGQGTQVPYTFGQGTKLEIKRTVAAPSVFIFPPSDEQLKSGTASVVCLLNNFYPREAKVQWKVDNALQSGNSQESVTEQDSKDSTYSLSSTLTLSKADYEKHKVYACEVTHQGLSSPVTKSFNRGEC
notes: one-arm antibody
B2: CE115HA000 H chain altered form T57I (antibody, human IgG1, kappa, L234A L235A, N297A, name in Kabat numbering)
heavy: QVQLVESGGGVVQPGRSLRLSCAASGFTFSNAWMHWVRQAPGKGLEWVAQIKAKSNNYAIYYAESVKGRFTISRDDSKNSLYLQMNSLKTEDTAVYYCRYVHYGAYYGVDAWGQGTTVTVSSASTKGPSVFPLAPSSKSTSGGTAALGCLVKDYFPEPVTVSWNSGALTSGVHTFPAVLQSSGLYSLSSVVTVPSSSLGTQTYICNVNHKPSNTKVDKKVEPKSCDKTHTCPPCPAPEAAGGPSVFLFPPKPKDTLMISRTPEVTCVVVDVSHEDPEVKFNWYVDGVEVHNAKTKPREEQYASTYRVVSVLTVLHQDWLNGKEYKCKVSNKALPAPIEKTISKAKGQPREPQVYTLPPSRCELTKNQVSLSCAVKGFYPSDIAVEWESNGQPENNYKTTPPVLDSDGSFFLVSKLTVDKSRWQQGNVFSCSVMHEALHNHYTQKSLSLSPDYKDDDDK
chain: EPKSSDKTHTCPPCPAPELLGGPSVFLFPPKPKDTLMISRTPEVTCVVVDVSHEDPEVKFNWYVDGVEVHNAKTKPREEQYNSTYRVVSVLTVLHQDWLNGKEYKCKVSNKALPAPIEKTISKAKGQPREPQVCTLPPSRDELTKNQVSLWCLVKGFYPSDIAVEWESNGQPENNYKTTPPVLDSDGSFFLYSKLTVDKSRWQQGNVFSCSVMHEALHNRYTQKSLSLSP
light: DIVMTQSPLSLPVTPGEPASISCRSSQSLVHSNRNTYLHWYQQKPGQAPRLLIYKVSNRFSGVPDRFSGSGSGTDFTLKISRVEAEDVGVYYCGQGTQVPYTFGQGTKLEIKRTVAAPSVFIFPPSDEQLKSGTASVVCLLNNFYPREAKVQWKVDNALQSGNSQESVTEQDSKDSTYSLSSTLTLSKADYEKHKVYACEVTHQGLSSPVTKSFNRGEC
notes: one-arm antibody
B3: CE115HA000 H chain altered form T57A (antibody, human IgG1, kappa, L234A L235A, N297A, name in Kabat numbering)
heavy: QVQLVESGGGVVQPGRSLRLSCAASGFTFSNAWMHWVRQAPGKGLEWVAQIKAKSNNYAAYYAESVKGRFTISRDDSKNSLYLQMNSLKTEDTAVYYCRYVHYGAYYGVDAWGQGTTVTVSSASTKGPSVFPLAPSSKSTSGGTAALGCLVKDYFPEPVTVSWNSGALTSGVHTFPAVLQSSGLYSLSSVVTVPSSSLGTQTYICNVNHKPSNTKVDKKVEPKSCDKTHTCPPCPAPEAAGGPSVFLFPPKPKDTLMISRTPEVTCVVVDVSHEDPEVKFNWYVDGVEVHNAKTKPREEQYASTYRVVSVLTVLHQDWLNGKEYKCKVSNKALPAPIEKTISKAKGQPREPQVYTLPPSRCELTKNQVSLSCAVKGFYPSDIAVEWESNGQPENNYKTTPPVLDSDGSFFLVSKLTVDKSRWQQGNVFSCSVMHEALHNHYTQKSLSLSPDYKDDDDK
chain: EPKSSDKTHTCPPCPAPELLGGPSVFLFPPKPKDTLMISRTPEVTCVVVDVSHEDPEVKFNWYVDGVEVHNAKTKPREEQYNSTYRVVSVLTVLHQDWLNGKEYKCKVSNKALPAPIEKTISKAKGQPREPQVCTLPPSRDELTKNQVSLWCLVKGFYPSDIAVEWESNGQPENNYKTTPPVLDSDGSFFLYSKLTVDKSRWQQGNVFSCSVMHEALHNRYTQKSLSLSP
light: DIVMTQSPLSLPVTPGEPASISCRSSQSLVHSNRNTYLHWYQQKPGQAPRLLIYKVSNRFSGVPDRFSGSGSGTDFTLKISRVEAEDVGVYYCGQGTQVPYTFGQGTKLEIKRTVAAPSVFIFPPSDEQLKSGTASVVCLLNNFYPREAKVQWKVDNALQSGNSQESVTEQDSKDSTYSLSSTLTLSKADYEKHKVYACEVTHQGLSSPVTKSFNRGEC
notes: one-arm antibody
B4: CE115HA000 H chain altered form T28S (antibody, human IgG1, kappa, L234A L235A, N297A, name in Kabat numbering)
heavy: QVQLVESGGGVVQPGRSLRLSCAASGFSFSNAWMHWVRQAPGKGLEWVAQIKAKSNNYATYYAESVKGRFTISRDDSKNSLYLQMNSLKTEDTAVYYCRYVHYGAYYGVDAWGQGTTVTVSSASTKGPSVFPLAPSSKSTSGGTAALGCLVKDYFPEPVTVSWNSGALTSGVHTFPAVLQSSGLYSLSSVVTVPSSSLGTQTYICNVNHKPSNTKVDKKVEPKSCDKTHTCPPCPAPEAAGGPSVFLFPPKPKDTLMISRTPEVTCVVVDVSHEDPEVKFNWYVDGVEVHNAKTKPREEQYASTYRVVSVLTVLHQDWLNGKEYKCKVSNKALPAPIEKTISKAKGQPREPQVYTLPPSRCELTKNQVSLSCAVKGFYPSDIAVEWESNGQPENNYKTTPPVLDSDGSFFLVSKLTVDKSRWQQGNVFSCSVMHEALHNHYTQKSLSLSPDYKDDDDK
chain: EPKSSDKTHTCPPCPAPELLGGPSVFLFPPKPKDTLMISRTPEVTCVVVDVSHEDPEVKFNWYVDGVEVHNAKTKPREEQYNSTYRVVSVLTVLHQDWLNGKEYKCKVSNKALPAPIEKTISKAKGQPREPQVCTLPPSRDELTKNQVSLWCLVKGFYPSDIAVEWESNGQPENNYKTTPPVLDSDGSFFLYSKLTVDKSRWQQGNVFSCSVMHEALHNRYTQKSLSLSP
light: DIVMTQSPLSLPVTPGEPASISCRSSQSLVHSNRNTYLHWYQQKPGQAPRLLIYKVSNRFSGVPDRFSGSGSGTDFTLKISRVEAEDVGVYYCGQGTQVPYTFGQGTKLEIKRTVAAPSVFIFPPSDEQLKSGTASVVCLLNNFYPREAKVQWKVDNALQSGNSQESVTEQDSKDSTYSLSSTLTLSKADYEKHKVYACEVTHQGLSSPVTKSFNRGEC
notes: one-arm antibody

These binders were tested against T1, CD3 epsilon homodimer protein (UniProt P07766 23-126) (assay: SPR Biacore T200, CD3 epsilon homodimer on chip, antibody as analyte;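 also: homodimer amine-coupled to a CM4 sensor chip, run at 25 °C in HBS-EP+ buffer, with kinetic parameters derived in Biacore T200 Evaluation Software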).
T1 construct: also called CD3 (CD3 epsilon)
T1 sequence (P07766 23-126): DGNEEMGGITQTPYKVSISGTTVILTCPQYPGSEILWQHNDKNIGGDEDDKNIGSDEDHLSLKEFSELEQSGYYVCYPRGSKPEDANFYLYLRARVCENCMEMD

Row | Binder | KD ratio (KD of CE115HA000 / KD of altered form)
1 | B1 | 0.93
2 | B2 | 0.81
3 | B3 | 0.87
4 | B4 | 0.79
